From publication PMC11673460

Molecular target: cobalamin binding domain of CarH from Thermus thermophilus (Thermus thermophilus)

- aggregation ratio (area of bacteria in aggregates/total area occupied by all bacteria) of E. coli MG1655 displaying CarH (CarH‐eCPX), with AdoB12Cy5, in the dark: 50%
- aggregation ratio of CarH‐displaying E. coli with AdoB12Cy5 under green or red light (aggregates not separated by far‐red light): < 20%
- aggregation ratio of CarH‐displaying E. coli with AdoB12Cy7.5 under green, red or far‐red light: < 20%
- aggregation ratio of CarH‐displaying E. coli with AdoB12 under green light (aggregates stable under red and far‐red light): < 20%
- aggregation ratio of E. coli MG1655 displaying CarH (CarH‐eCPX), with AdoB12, in the dark: 50%
- aggregation ratio of E. coli MG1655 displaying CarH (CarH‐eCPX), with AdoB12Cy7.5, in the dark: 50%
Substance: cobalamin binding domain of CarH from Thermus thermophilus (domain or fragment)
